Laboratory results from the supplement of paper PMC9170038.

Tested on: K4 kissing-loop RNA reporter
Test: apparent KD of K4 kissing-loop reporter; higher = weaker reporter binding
Details: Eterna round: R107; input ligand: FMN 200 uM
Description: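 RNA-MaP round R107: designed RNA switches with theophylline, tryptophan, arginine or FMN aptamers are transcribed on-chip within common flanks. They are titrated with a labelled K4 kissing-loop RNA reporter in RNA-MaP buffer (100 mM Tris pH 7.5, 80 mM KCl, 4 mM MgCl2), without ligand or with the indicated ligand. Median apparent KD per design.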
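Note: bound reporter read as fluorescence of individual clusters on recovered sequencing chips by microscopy, with normalized cluster intensities fitted with a binding model.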

Sequence | apparent KD of K4 kissing-loop reporter [nM]
CAGACAUGCGGUAGGUUCAAGCGCUGGGAAGGAGCGCAGAUGACUGCAGGUAGGUCGCCCAGUGAUGUUGGGCUUUCCACCUAUG [Onbeenbi] | 110
CAUACGCAUGGAGGAUAUGAGAUUACUCAUAUCAUUUAAUAUUCUCAGUGAUGUUGAGAUUUAGACUCAGAAGGCCAUGUGUAUG [Ex FMN B 13] | 302
CGUUUAUAGCAGGAUACCAGUACCCAUUAUGUACGUUUAUAGUAGAGUGAUGUUCUAAAGUACCCUUGGCAGCUUCCCGUGACCC [ExTheophylB.Z] | 113
GCCGUACGCAUGGAUACCAGCAGAACUGCCCUCCCAGUGAUGUUGGGAGGAUCUUUCCUAUGCCCUUGGCAGCCAUGCGUACGGC | 148
GCGAACAUUCGCAGUGAUGUUGCGACGGAAGGAGCGCGUGAAAACGCAGGUAGGUCGCCGACAACAUUAAUUUUAAUGUGUUCGC [Arginine A K4 28] | 411
AGUGGACGUGUUCGGAGUGAUGUUCCGGAUACCAGACACGAAAGUGUCCCUUGGCAGCCGGAGUGAUGUUCCGGCGUUCACUAAA [Omei KL Theo A Exc B v2] | 646
UAAUAAAUUCUGGCAAUGUCACUCUUCGAAGGAGCGGACGAAAGUCCAGGUAGGUCGCGAAGAGUGAUGUUCUUCGCGGCGCCAG [Omei KL Arginine A Exc A v1] | 299
UCGAUAGCCAGCGAUACCAGCCCAGUGAUGUUGGGCACAUGGUUGCGGGAAAUCCUAUUGGGCCCUUGGCAGCGCUUGCAUGGGU [Anbixeza] | 127
GGUAGCAUGGCGGCCGCCACUUGCACUCGUCUUGCAUAUUGGCCUAUGAUAGUAGUGAUGUUACUAAGGACCGGGCCAUGCUACC | 266
UUUUUAUGCAGUGAUGUUGCUAAUAUAACAGAGGAUAUGCAUUAAAGCAGAAGGCUGAAAUACUAUACUUUAAUAAAUUAAAUUU [JR_SSFMNA_Sub013] | 94.2
UGUCAUUGGUCGGCCGCCACUAUAAUAAAAGAGUGAUGUUCUAAAAGACGGACAAAAGUCUGUCGUAGGACCGGGACCGAUGACU [TrypBS 26 #SwitchBubble #StaticStem] | 1100
CGCAGUGAUGUUGCUUUUAUUCUUGGUUAACGAGGACCGGUACGGCCGCCACUCGAUUUCUAUCUAUUCCAGUGUUUUUUUGAGU [JR_ExcTryptoA_Sub004] | 261
AGUUCAGAGUGACUCGAUAAGAGUCACAAACGAGGACCGGUACGGCCGCCACUCGAAAUAACGAGAGUGAUGUUCUCGCUGGGCA [FiskerMod 2 - Jieux - Same State Tryptophan A] | 726
GUCUGCGUCUCGGCCGCCACUCACUAGUGAUGUUAGUAAGGAGCGACUAGCGCAGUCCUGAAGAUGAGGACCGGGAGACGCAGGA [Exclusion Tryptophan B GF5] | 141
UCCUGCACGGUCGAUACCAGCCUAUGCAGUGAUGUUGUAAGGUUGUCACUUUAGUACGAAGGCCCUUGGCAGCGAUGAUGUAACA [theeternabot_exclusion_KL_Theo_B_41] | 601
UACACGACUCGUGUAAACCGAGGUAACAGGCAGGAUAUGUAACGGAACAGAAGGGCCAUGUAGCGUGUCCAGUGAUGUUGGAUGC [Betilare] | 199
ACGAUCAUGUCGGCCGCCACUGAGAGUAGUGAUGUUACUCUUUUCCUUUAGUUAUUAUAUUUUAUCAGGACCGGGACAUGUUCGU [JR_ExcTryptoB_Sub022] | 88.3
UGAUACCAGACGGCCGCCACUCUUGCAGUCAAAGACUGCUAAAAGGAAAUCGUCCAGUGAUGUUGGAGGACCGGGUCUGGUAUCU [TrypBX 15 #SwitchBubble #Palindromic #StaticStem] | 1420
AUACGUUUCAGAGGAUAUCGGAGGAGAGUGAUGUUCUCCCAUAGCCCAGUGAUGUUGGAAGCUAUCCGAGAAGGCUGUGGGCGUA [Same State FMN B GF 15] | 145
AAAGCAUUGAGAAGGAGCGUGUCGUGGAGUGAUGUUCCAUUGUAGACCUAAGGUCUACAAGCACAGGUAGGUCGCUCAUUGCUAA [JR_Nu_SSArginiB_Sub023] | 169
AAUACGCCGAAAGGAUAUAUAGAACAUCAAGGGCGCUGACUUUGCUAAAUCACAAGUGAUGUUUGUAUAGAAGGUUCGCAGUCAA [theeternabot_exclusion_KL_FMN_B_30] | 245
AGACUACUGAUAGGAUAUAACAUCCUAGUCGUAUACCGAAAGGUAUACGAAACCCUUCUAGUGAUGUUAGAAGGGUCGGUAGUCA [Omei KL FMN B Exc B v9] | 79.8

Sequence | apparent KD of K4 kissing-loop reporter [nM]
UCCAGGAAUCAUGUCGUAGUGAUGUUAUGACGAGGACCGGUACGGCCGCCACUCGUCGUGGCCGGUUCUGAGGGCUAAUCUCUCA [theeternabot_exclusion_KL_Trp_A_34] | 247
UUCCUCAUGGUAGUGAUGUUGCCGCCCGAUACCAGUCGACGUAUUGACCCUUGGCAGCGGAUCAAGUCCGAUUAAUUUUUUGGUC [theeternabot_sameState_KL_Theo_A_5] | 216
AAAACUAUCAGAAGGAGCGUGGAAUAUUCAUCUGUAUCUAAUACGAGUGAUGUUCGUAAUUCACAGGUAGGUCGCUGAUCAAUAA [whbob_Ex_Arginine_B_2th155] | 255
AUCGUUGUCUGAGGAUAUCGGUUAUCUGUAGUGAUGUUACAGUAUAUUCAUAUUAUACUUUCUAUUCGAGAAGGCAGACUACGUA [JR_Nu_ExcFMNB_Sub020] | 169
CCAUCGCUAUUCGAUACCAGCCAAGAGGUCUUUGGCCUCUUAAUGGAGUGAUGUUCCAUUGGCCCUUGGCAGCGAAUAGUGAUGG [Theophylline B K4 18] | 771
AGGCACGAGCAAGGAUAUUGAGUAGAGUGAUGUUCUGCCUGGGUUGGCUCGUAAGAGCCUUCUCAGCGAGAAGGUGCUCGUGCCU [#2 Same State - FMN A Attempt #23 (HarryS)] | 254
GGAUCUGCCAGUGAUGUUGGUUAAUAUAUCAAGGAUAUGACGAAAGUCAGAAGGUGAAAGACUGGACAAAGUCCAGUCGGAUCCA [KL-SSFMN-A20] | 237
CCUAUCUCAUACGAUACCAGUGAAAUAAUAUUUAUAAGCAGUGAUGUUGCAUUCCAAGAACACCCUUGGCAGCGUAUGGGAUAGG [Ex Theophylline B K4 19] | 168
CGAGUGAUGUUCGUUUUUUAAUUUUUUUGACAGGAUAUGCGGAAACGCAGAAGGGUCACCUUUGAGUUAAAAGAAUUUAUUUUUU [Ex FMN A 17] | 321
AUAAACUUGCAGUGAUGUUGCAAGUAAGACUAGGAUAUCAGGAAACUGAGAAGGAGUCAUCUCCUUCACUUGCAACUAGGAGGAG [[K1]-[K2]-[F1]-[F2]-[F]'-[K]'-[F]''_Design6] | 122
GAUGGUGGCAGUGAAGUGAUGUUUCAUGAUACCAGUUUUAUAAGUAACCCUUGGCAGCAUCGUACGCAGCGUAGUGGACAUCACG [theeternabot_exclusion_KL_Theo_A_25] | 129
UGUUAUGUAUCAGGAUAUUAGUGAUGUUUGUUUAUGUUAGUGAUGUUGAUAUUUGUUUUAUGUAUUUAAGAAGGGAUUGAGAUGU [dcdmullin] | 55.4
GCAGGACGAUGAGGAGGAUGAAUUACUGAAGGAGCGCAUAUGGUUGCAGGUAGGUCGCGGUGAACAAGUAUAGUGAUGUUAUAUC [SSArgA.R] | 755
AAACGUUGGUGCGAUACCAGCUUGCGCGGAAAACGCGCUACUGGAGUGAUGUUCCUAAAUAGCCCUUGGCAGCGCACCGACGAAA [MAT - Same State Theophlline B - Mod of Eli - D9] | 193
UUACAGCCCAGUGAUGUUGGGUAGCGGCGGCGAGGACCGGUACGGCCGCCACUCGGCGCACAGGCGGAGUGAUGUUUUGCUUAAA [Same State Tryptophan A GF 11] | 718
UAUUUAGUGACGGCCGCCACUAUUGUGAUUUAUUUGUUUGAGUGAUGUUUUGAUGUUUGAUUUUGUAGGACCGGGUUAUGUGUUA [awscmullin] | 1080
UACUAUAGUGAUGUUAUAGAUAAAACAGAUACCAGUGUAACAUAACACCCUUGGCAGCUGAUAAGGGAAAGUAUAAAUGUGUAUU [AstrosSSTHe-A#2newdesignED] | 207
UUCUACGAGUGAUGUUCGUAGUGUAAUAGCUAGGAUAUCGUUUUUUCGAGAAGGAGCUUCGAAGUGAUACGAAAGUAUCGCUUCG [FMN A 12] | 227
AAUAAAAUCACGGCCGCCACUGAUACUAAUAUUAGCAGUGAUGUUGCUAUGUAUAAUUUAUUAAACAGGACCGGGUGAAUAUUUA [JR_ExcTryptoB_Sub015] | 159
GCCGUACGCAUGGAUACCAGCACUCGUUGAGUGAUGUUCACGAGGUGGUAUUCGACGGGCUGCCCUUGGCAGCCAUGCGUACGGC | 111
GUAAUCUUGCUCGAGUGAUGUUCGAGCGAAGGAGCGCGAGAAAUCGCAGGUAGGUCGCGCUCGAAAUAUGAGCGAACAAUUAUUA [Arg A Ex t2b] | 222

Same assay, conditions: Eterna round: R107; input ligand: arginine 13.2 mM

Sequence | apparent KD of K4 kissing-loop reporter [nM]
CAGACAUGCGGUAGGUUCAAGCGCUGGGAAGGAGCGCAGAUGACUGCAGGUAGGUCGCCCAGUGAUGUUGGGCUUUCCACCUAUG [Onbeenbi] | 122
CAUACGCAUGGAGGAUAUGAGAUUACUCAUAUCAUUUAAUAUUCUCAGUGAUGUUGAGAUUUAGACUCAGAAGGCCAUGUGUAUG [Ex FMN B 13] | 310
CGUUUAUAGCAGGAUACCAGUACCCAUUAUGUACGUUUAUAGUAGAGUGAUGUUCUAAAGUACCCUUGGCAGCUUCCCGUGACCC [ExTheophylB.Z] | 171
GCCGUACGCAUGGAUACCAGCAGAACUGCCCUCCCAGUGAUGUUGGGAGGAUCUUUCCUAUGCCCUUGGCAGCCAUGCGUACGGC | 113
GCGAACAUUCGCAGUGAUGUUGCGACGGAAGGAGCGCGUGAAAACGCAGGUAGGUCGCCGACAACAUUAAUUUUAAUGUGUUCGC [Arginine A K4 28] | 308
AGUGGACGUGUUCGGAGUGAUGUUCCGGAUACCAGACACGAAAGUGUCCCUUGGCAGCCGGAGUGAUGUUCCGGCGUUCACUAAA [Omei KL Theo A Exc B v2] | 311
UAAUAAAUUCUGGCAAUGUCACUCUUCGAAGGAGCGGACGAAAGUCCAGGUAGGUCGCGAAGAGUGAUGUUCUUCGCGGCGCCAG [Omei KL Arginine A Exc A v1] | 235
UCGAUAGCCAGCGAUACCAGCCCAGUGAUGUUGGGCACAUGGUUGCGGGAAAUCCUAUUGGGCCCUUGGCAGCGCUUGCAUGGGU [Anbixeza] | 118
GGUAGCAUGGCGGCCGCCACUUGCACUCGUCUUGCAUAUUGGCCUAUGAUAGUAGUGAUGUUACUAAGGACCGGGCCAUGCUACC | 173
UUUUUAUGCAGUGAUGUUGCUAAUAUAACAGAGGAUAUGCAUUAAAGCAGAAGGCUGAAAUACUAUACUUUAAUAAAUUAAAUUU [JR_SSFMNA_Sub013] | 136
